Positions count from the first letter of the chain named.
How the values were obtained:
BaCcpC-FL = biological target: T1, BaCcpC-FL (Bacillus velezensis, UniProt A7Z428); assay: EMSA with biotin-labelled citB promoter DNA; type: binding; conditions: 40 μM protein, 800 nM citB promoter DNA, 0-70 μM citrate, 30 min, room temperature; inducer
T1 construct: gene RBAM_013910; full length, residues 1-293; N-terminal His tag removed by TEV; E. coli BL21(DE3); dimer (~60 kDa) by SEC-MALS
T1 sequence (A7Z428 1-293): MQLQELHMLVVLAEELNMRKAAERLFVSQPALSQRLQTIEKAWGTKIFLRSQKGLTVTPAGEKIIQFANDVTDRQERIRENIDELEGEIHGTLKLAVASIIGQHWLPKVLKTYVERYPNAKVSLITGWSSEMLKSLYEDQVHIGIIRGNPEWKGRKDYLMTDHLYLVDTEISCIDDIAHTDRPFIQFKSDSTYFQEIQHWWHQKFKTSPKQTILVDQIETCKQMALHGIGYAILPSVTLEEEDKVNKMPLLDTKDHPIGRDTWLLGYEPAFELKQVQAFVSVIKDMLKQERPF

[1] = biological target: the molecule itself; assay: crystal structure; BaCcpC-IBD with citrate, 2.3 Å, space group C2, SAD phasing; crystals from PEG 6000, MPD, 0.1 M HEPES pH 7.5, 287 K
[2] = biological target: the molecule itself; assay: SEC-MALS; BaCcpC-FL not incubated with citrate; Superdex 200 Increase 10/300 GL, 295 K, 20 mM Tris pH 8.0, 150 mM NaCl, 2 mM 2-mercaptoethanol

O=C(O)CC(O)(CC(=O)O)C(=O)O [citrate]
EMSA with biotin-labelled citB promoter DNA (BaCcpC-FL): the presence of citrate slightly suppressed the binding of CcpC to citB-P

B1: C-terminal inducer-binding domain of Bacillus amyloliquefaciens CcpC (domain or fragment, UniProt A0A9P1JGF9 88-293, looked up)
chain: EIHGTLKLAVASIIGQHWLPKVLKTYVERYPNAKVSLITGWSSEMLKSLYEDQVHIGIIRGNPEWKGRKDYLMTDHLYLVDTEISCIDDIAHTDRPFIQFKSDSTYFQEIQHWWHQKFKTSPKQTILVDQIETCKQMALHGIGYAILPSVTLEEEDKVNKMPLLDAKDHPIGRDTWLLGYEPAFELKQVQAFVSVVKDMLKQERPF
modifications: selenomethionine-substituted (Se-Met protein used for SAD phasing)
notes: Crystallised in complex with citrate; five molecules in the asymmetric unit; Cloned into pPROEX-HTA; also called BaCcpC-IBD; CcpC-IBD; source: E. coli BL21 (DE3), purified (Ni-NTA, TEV cleavage, HiTrap-Q, Superdex 200) with 10 mM sodium citrate throughout; not shown: His6, N-terminal, cleaved
binding result [1]: binds

B2: full-length catabolite control protein C from Bacillus amyloliquefaciens (natural protein, UniProt A0A9P1JGF9 1-293, looked up)
chain: T1 sequence (A7Z428 1-293) with T253A, I283V
notes: Catabolite control protein C (CcpC), LysR-type transcriptional regulator, Bacillus amyloliquefaciens, residues 1-293, amplified from genomic DNA; PDB 7DMW holds only residues 88-293; also called BaCcpC-FL; BaCcpC; source: E. coli BL21 (DE3), purified (Ni-NTA, TEV cleavage, HiTrap-Q, Superdex 200); not shown: His6, N-terminal, cleaved
stoichiometry N [2]: 2

From PMC8514465, “Functional and structural analysis of catabolite control protein C that responds to citrate” (Scientific Reports, 2021)
